One assay has as its target Parkin (UniProt O60260). Description: Strep-Tactin pull-down, anti-Parkin blot. To be noted: reference: unmodified Strep-NEDD8; sites S65.
A further assay deals with HDAC6 (UniProt Q9UBN7). The experiment in a line: Strep bait enrichment from lysate, Western blot. Particulars: reference: unmodified Strep-NEDD8; sites S65. A general note: Immunoblotting shows a protein as a band on a membrane.

As for “NEDD8 1-76 (from UniProt Q15843) Strep-pNEDD8 (pS65)”, the “binding against the reference” value in the assay with Parkin and with HDAC6 was “stronger” throughout.

Values taken from publication PMC9020517.
